Measurements: the supplement of paper PMC10065799, “High-throughput profiling of sequence recognition by tyrosine kinases and SH2 domains using bacterial peptide display” (eLife, 2023)

Legend:
c-Src SH2 = assay: SH2 binding enrichment of the phosphorylated peptide, bacterial display (enrichment ratio); higher = better substrate or ligand; peptides without Tyr show the background
SHP2-C SH2 = assay: as above
Grb2 SH2 = Grb2 SH2 (UniProt P62993); assay: as above
Fer (mouse) = assay: phosphorylation enrichment, bacterial display (enrichment ratio); higher = better substrate or ligand; peptides without Tyr show the background
EPHB2 = EPHB2 (UniProt P29323); assay: as above
MERTK = MERTK (UniProt Q12866); assay: as above
Fyn = Fyn (UniProt P06241); assay: as above
Chain of Fyn (P06241 whole entry, looked up): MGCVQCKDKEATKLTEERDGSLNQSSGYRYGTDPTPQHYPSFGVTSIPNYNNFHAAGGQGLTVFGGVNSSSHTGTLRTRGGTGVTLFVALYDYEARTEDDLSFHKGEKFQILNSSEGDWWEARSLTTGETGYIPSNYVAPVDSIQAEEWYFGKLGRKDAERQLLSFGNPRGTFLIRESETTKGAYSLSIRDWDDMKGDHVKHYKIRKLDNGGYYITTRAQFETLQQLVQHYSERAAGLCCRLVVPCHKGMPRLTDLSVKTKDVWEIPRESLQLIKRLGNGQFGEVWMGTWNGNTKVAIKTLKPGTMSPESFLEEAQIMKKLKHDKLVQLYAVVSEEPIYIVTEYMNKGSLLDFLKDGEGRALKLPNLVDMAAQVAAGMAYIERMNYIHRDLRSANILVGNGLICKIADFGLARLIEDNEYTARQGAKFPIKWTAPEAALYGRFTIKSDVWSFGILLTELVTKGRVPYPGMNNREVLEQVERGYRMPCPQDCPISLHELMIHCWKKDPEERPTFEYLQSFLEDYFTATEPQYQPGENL

Hck = Hck (UniProt P08631); assay: as above
FGFR3 = FGFR3 (UniProt P22607); assay: as above
Chain of FGFR3 (P22607 whole entry, looked up): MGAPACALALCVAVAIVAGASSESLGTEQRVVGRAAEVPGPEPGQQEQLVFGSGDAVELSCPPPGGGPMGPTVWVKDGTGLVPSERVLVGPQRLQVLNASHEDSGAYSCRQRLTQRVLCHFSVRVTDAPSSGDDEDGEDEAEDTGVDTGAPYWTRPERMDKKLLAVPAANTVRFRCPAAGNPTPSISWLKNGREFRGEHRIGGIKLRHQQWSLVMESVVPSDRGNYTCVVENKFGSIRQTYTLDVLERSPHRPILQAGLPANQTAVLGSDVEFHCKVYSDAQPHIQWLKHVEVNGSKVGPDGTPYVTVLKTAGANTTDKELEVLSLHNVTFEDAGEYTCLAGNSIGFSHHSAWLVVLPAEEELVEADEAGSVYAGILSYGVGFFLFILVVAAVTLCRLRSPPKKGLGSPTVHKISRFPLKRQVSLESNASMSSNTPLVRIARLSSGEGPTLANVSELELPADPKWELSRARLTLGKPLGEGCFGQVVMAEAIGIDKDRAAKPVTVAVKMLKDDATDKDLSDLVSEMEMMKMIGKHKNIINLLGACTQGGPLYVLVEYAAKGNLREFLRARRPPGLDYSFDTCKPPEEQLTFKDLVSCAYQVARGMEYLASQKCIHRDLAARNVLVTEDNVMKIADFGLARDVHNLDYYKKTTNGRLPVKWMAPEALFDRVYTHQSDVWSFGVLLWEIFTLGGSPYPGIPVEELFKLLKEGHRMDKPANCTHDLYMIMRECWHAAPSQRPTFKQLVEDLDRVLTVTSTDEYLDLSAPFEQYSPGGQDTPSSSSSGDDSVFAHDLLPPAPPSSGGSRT

c-Src = assay: as above
AncSZ = assay: as above
Jak2 = Jak2 (UniProt O60674); assay: as above
Chain of Jak2 (O60674 whole entry, looked up): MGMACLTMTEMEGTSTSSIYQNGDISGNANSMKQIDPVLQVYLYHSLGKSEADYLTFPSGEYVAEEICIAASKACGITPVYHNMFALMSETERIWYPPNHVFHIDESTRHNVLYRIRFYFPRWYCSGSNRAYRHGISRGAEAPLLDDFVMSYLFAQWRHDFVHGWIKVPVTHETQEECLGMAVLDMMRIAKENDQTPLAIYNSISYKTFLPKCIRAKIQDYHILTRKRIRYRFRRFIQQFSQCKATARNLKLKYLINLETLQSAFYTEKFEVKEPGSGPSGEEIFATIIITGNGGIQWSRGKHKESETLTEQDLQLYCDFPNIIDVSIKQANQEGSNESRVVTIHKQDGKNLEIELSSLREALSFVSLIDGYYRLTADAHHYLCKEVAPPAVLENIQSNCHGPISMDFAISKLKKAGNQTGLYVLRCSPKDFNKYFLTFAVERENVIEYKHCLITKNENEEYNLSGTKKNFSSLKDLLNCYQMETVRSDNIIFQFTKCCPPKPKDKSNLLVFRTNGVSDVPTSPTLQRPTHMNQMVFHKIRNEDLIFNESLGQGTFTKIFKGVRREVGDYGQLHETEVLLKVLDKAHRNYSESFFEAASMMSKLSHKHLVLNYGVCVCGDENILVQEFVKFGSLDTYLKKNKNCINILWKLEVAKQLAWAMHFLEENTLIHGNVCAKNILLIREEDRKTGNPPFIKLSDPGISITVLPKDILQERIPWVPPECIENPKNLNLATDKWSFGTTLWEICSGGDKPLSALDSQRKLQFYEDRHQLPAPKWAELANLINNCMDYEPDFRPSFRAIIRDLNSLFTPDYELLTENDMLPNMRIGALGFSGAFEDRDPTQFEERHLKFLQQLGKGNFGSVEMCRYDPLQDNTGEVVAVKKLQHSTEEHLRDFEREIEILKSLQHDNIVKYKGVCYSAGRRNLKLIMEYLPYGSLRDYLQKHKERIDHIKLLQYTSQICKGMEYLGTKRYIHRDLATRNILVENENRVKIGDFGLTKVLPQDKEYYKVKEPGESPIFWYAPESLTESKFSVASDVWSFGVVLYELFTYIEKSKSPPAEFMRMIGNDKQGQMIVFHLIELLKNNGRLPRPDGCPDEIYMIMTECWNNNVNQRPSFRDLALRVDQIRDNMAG

EPHB1 = EPHB1 (UniProt P54762); assay: as above
Chain of EPHB1 (P54762 whole entry, looked up): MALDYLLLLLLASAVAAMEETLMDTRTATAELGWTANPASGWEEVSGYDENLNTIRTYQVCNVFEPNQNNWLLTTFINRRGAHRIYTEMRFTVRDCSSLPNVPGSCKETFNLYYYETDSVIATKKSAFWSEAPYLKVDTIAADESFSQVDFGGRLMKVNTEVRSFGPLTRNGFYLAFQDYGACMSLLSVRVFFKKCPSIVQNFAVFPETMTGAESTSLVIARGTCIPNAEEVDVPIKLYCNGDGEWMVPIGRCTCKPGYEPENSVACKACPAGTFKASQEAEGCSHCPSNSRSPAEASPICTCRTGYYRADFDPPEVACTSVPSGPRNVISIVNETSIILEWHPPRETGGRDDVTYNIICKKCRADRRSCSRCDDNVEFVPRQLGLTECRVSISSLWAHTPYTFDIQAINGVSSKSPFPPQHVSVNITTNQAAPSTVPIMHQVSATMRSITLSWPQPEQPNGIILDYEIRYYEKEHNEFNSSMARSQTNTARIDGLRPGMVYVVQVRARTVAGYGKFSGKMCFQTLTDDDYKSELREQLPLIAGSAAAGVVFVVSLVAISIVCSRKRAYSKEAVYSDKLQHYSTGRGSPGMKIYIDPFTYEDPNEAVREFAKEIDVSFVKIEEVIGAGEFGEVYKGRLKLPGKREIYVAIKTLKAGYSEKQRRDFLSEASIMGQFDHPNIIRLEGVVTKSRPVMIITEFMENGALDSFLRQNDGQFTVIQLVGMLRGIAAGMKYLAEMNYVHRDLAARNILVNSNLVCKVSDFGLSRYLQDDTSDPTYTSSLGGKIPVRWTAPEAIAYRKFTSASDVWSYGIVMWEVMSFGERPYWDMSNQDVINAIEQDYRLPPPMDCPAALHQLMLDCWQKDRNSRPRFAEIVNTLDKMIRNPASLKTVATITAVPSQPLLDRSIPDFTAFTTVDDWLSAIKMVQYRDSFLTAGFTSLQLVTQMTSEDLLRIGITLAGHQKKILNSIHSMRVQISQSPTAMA

FGFR1 = FGFR1 (UniProt P11362); assay: as above
Chain of FGFR1 (P11362 whole entry, looked up): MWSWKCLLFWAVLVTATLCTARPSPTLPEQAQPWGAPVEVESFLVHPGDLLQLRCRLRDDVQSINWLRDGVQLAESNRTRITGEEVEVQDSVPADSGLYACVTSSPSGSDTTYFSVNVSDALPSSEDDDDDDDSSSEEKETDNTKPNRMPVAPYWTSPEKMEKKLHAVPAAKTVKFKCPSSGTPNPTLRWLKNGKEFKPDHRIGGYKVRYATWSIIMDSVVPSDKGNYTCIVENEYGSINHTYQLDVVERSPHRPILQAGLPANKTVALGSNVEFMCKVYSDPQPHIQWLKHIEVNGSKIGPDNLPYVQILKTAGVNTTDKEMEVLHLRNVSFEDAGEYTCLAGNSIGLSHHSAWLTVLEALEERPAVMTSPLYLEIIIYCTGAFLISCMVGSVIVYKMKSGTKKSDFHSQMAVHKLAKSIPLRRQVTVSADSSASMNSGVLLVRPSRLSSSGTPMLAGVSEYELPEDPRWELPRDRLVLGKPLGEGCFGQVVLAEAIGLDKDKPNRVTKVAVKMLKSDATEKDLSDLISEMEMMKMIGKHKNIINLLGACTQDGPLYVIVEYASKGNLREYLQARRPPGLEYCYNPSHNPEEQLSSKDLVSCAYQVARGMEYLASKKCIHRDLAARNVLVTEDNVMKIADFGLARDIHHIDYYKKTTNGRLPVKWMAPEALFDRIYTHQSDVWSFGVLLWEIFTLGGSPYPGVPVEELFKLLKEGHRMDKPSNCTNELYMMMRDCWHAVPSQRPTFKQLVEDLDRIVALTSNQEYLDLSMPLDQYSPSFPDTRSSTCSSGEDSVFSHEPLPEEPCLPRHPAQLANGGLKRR

Fes = Fes (UniProt P07332); assay: as above
Chain of Fes (P07332 whole entry, looked up): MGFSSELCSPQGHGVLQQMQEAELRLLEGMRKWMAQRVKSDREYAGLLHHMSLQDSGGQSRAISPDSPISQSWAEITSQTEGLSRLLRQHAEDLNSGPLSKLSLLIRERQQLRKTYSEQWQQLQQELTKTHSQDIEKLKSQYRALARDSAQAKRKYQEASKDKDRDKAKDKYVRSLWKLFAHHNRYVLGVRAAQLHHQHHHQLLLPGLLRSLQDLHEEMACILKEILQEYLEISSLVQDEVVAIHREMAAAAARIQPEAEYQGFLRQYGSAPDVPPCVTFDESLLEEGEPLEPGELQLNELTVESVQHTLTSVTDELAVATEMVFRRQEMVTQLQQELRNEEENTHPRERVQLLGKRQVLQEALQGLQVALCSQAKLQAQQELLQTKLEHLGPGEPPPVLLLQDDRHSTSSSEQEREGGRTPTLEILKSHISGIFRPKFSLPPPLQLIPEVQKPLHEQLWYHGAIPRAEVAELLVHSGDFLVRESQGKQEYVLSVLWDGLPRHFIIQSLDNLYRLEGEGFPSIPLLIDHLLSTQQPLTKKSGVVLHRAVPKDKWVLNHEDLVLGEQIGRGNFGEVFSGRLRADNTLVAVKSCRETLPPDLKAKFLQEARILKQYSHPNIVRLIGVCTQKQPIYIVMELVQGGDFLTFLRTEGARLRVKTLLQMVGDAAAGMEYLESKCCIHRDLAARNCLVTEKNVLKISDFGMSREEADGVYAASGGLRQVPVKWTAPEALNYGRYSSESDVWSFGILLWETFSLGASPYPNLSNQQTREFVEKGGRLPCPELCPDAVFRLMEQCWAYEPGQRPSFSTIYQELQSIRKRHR

c-Abl (mouse) = assay: as above
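For SH2 binding enrichment of the phosphorylated peptide, bacterial display in this document: peptide library displayed on the E. coli surface as eCPX fusions, selected cells deep-sequenced, score is each peptide's frequency after selection divided by its frequency in the input.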
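For phosphorylation enrichment, bacterial display in this document: 11-residue human phosphosite peptides and single-mutation variants displayed on the E. coli surface, counted by deep sequencing, each peptide's frequency after selection divided by its frequency in the unselected input library; frequency after pTyr selection over input frequency; kinase dosed for 20-30% of maximal phosphorylation in three min.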

Row | Sequence | SH2 binding enrichment (c-Src SH2) | SH2 binding enrichment (SHP2-C SH2) | SH2 binding enrichment (Grb2 SH2) | phosphorylation enrichment (Fer (mouse)) | phosphorylation enrichment (EPHB2) | phosphorylation enrichment (MERTK) | phosphorylation enrichment (Fyn) | phosphorylation enrichment (Hck) | phosphorylation enrichment (FGFR3) | phosphorylation enrichment (c-Src) | phosphorylation enrichment (AncSZ) | phosphorylation enrichment (Jak2) | phosphorylation enrichment (EPHB1) | phosphorylation enrichment (FGFR1) | phosphorylation enrichment (Fes) | phosphorylation enrichment (c-Abl (mouse))
1 | GRSTFYWPSPR [GAGE12J_Y10_R13S_YF] | 1.26 | 1.64 | 1.49 | 0.399 | 0.693 | 6.43 | 0.466 | 0.559 | 0.708 | 0.551 | 0.643 | 0.713 | 0.541 | 0.665 | 0.697 | 0.726
2 | GRSTYYWPRPR [GAGE12J_Y10] | 0.419 | 0.386 | 0.668 | 0.504 | 0.507 | 0.748 | 0.524 | 0.615 | 0.481 | 0.665 | 0.697 | 0.543 | 0.474 | 0.537 | 0.444 | 0.93
3 | GRTPLYMDRQG [AGXT_Y194_G190R] | 0.542 | 1.12 | 0.891 | 0.344 | 0.443 | 0.432 | 0.495 | 0.702 | 0.415 | 0.528 | 0.575 | 0.472 | 0.452 | 0.396 | 0.498 | 0.473
4 | GRVLGYGAFGK [FLT4_Y853] | 0.556 | 0.851 | 1.28 | 0.371 | 0.354 | 0.339 | 0.446 | 0.427 | 0.474 | 0.41 | 0.431 | 0.662 | 0.364 | 0.348 | 0.57 | 0.434
5 | GSERDYTYEEL [EIF2S2_Y174] | 0.944 | 0.761 | 0.969 | 0.6 | 0.645 | 0.707 | 1.09 | 1.21 | 0.711 | 1.63 | 1.36 | 1.29 | 0.602 | 0.535 | 1.13 | 0.977
6 | GSRGKYSSGFC [ATM_Y332_R337C] | 0.938 | 1.16 | 1.25 | 0.401 | 0.406 | 0.51 | 0.464 | 0.431 | 0.539 | 0.472 | 0.495 | 0.545 | 0.441 | 0.446 | 0.559 | 0.611
7 | GSSSSYGQHGS [HRNR_Y517] | 0.375 | 1.43 | 0.868 | 0.316 | 0.343 | 0.309 | 0.376 | 0.339 | 0.293 | 0.256 | 0.376 | 0.352 | 0.315 | 0.396 | 0.472 | 0.322
8 | GTFVIYVRFGG [FLNB_Y1687_YF] | 0.782 | 0.968 | 1.34 | 0.4 | 0.49 | 0.379 | 0.353 | 0.433 | 0.731 | 0.465 | 1.15 | 0.711 | 0.392 | 0.52 | 1.18 | 0.854
9 | GTSLIYWTLFT [G6PC3_Y214] | 0.457 | 0.652 | 0.746 | 1.68 | 2.09 | 5.81 | 8.42 | 6.02 | 4.45 | 6.99 | 1.82 | 3 | 3.96 | 5.01 | 1.97 | 11.2
10 | GVRFIYTIDGS [DCX_Y105_YF] | 0.507 | 0.933 | 0.915 | 0.669 | 0.737 | 0.48 | 1.04 | 0.674 | 0.843 | 1.01 | 1.41 | 1.45 | 0.628 | 0.546 | 1.59 | 0.924
11 | GVSYIYTIDGS [DCX_Y105_R102S] | 0.726 | 16.3 | 0.794 | 0.412 | 0.498 | 1.28 | 5.77 | 2.71 | 0.711 | 4.85 | 1.11 | 0.944 | 0.618 | 0.494 | 1.08 | 0.663
12 | HEKFLYFLPAS [DYNC2H1_Y346] | 0.676 | 0.868 | 0.925 | 0.931 | 1.3 | 3.9 | 1.87 | 2.12 | 1.82 | 1.08 | 2.17 | 2.82 | 1.72 | 1.08 | 1.8 | 1.4
13 | HESEIYCKVCY [CSRP3_Y57] | 1.8 | 1.81 | 1.58 | 2.51 | 0.782 | 2.65 | 5.52 | 7.96 | 0.855 | 7.01 | 1.41 | 1.14 | 0.925 | 1.03 | 1.25 | 1.01
14 | HKANEYYPVVI [ADAMTS18_Y764_L769I] | 0.587 | 1.06 | 0.665 | 1.26 | 0.599 | 0.558 | 0.676 | 0.723 | 13.1 | 0.427 | 2.1 | 2.19 | 1.01 | 17.4 | 0.746 | 0.61
15 | HNVPIYEGFGL [ACTA1_Y168_A172G_YF] | 0.513 | 0.823 | 0.85 | 18.8 | 27.6 | 12.1 | 14.9 | 13.5 | 0.519 | 8.62 | 1.35 | 0.575 | 24.2 | 0.507 | 4.3 | 7.97
16 | HTVVSYAEVRA [CLOCK_Y378] | 3.25 | 27.9 | 0.721 | 0.52 | 0.809 | 0.509 | 0.897 | 0.899 | 0.599 | 0.742 | 1.12 | 0.779 | 0.627 | 0.62 | 1.23 | 0.781

Further lines, with some results ahead:

Row | SH2 binding enrichment (c-Src SH2) | SH2 binding enrichment (SHP2-C SH2) | SH2 binding enrichment (Grb2 SH2) | Sequence | phosphorylation enrichment (Fer (mouse)) | phosphorylation enrichment (EPHB2) | phosphorylation enrichment (MERTK) | phosphorylation enrichment (Fyn) | phosphorylation enrichment (Hck) | phosphorylation enrichment (FGFR3) | phosphorylation enrichment (c-Src) | phosphorylation enrichment (AncSZ) | phosphorylation enrichment (Jak2) | phosphorylation enrichment (EPHB1) | phosphorylation enrichment (FGFR1) | phosphorylation enrichment (Fes) | phosphorylation enrichment (c-Abl (mouse))
17 | 0.857 | 1.87 | 1.38 | GRVFVYRLSEQ [ITGAE_Y551_YF] | 0.425 | 0.511 | 0.404 | 0.534 | 0.492 | 0.663 | 0.585 | 0.81 | 0.927 | 0.494 | 0.553 | 1.02 | 0.655
18 | 0.501 | 0.689 | 0.902 | GVIKEYQIRQV [USH2A_Y3623] | 0.353 | 0.349 | 0.359 | 0.356 | 0.363 | 0.476 | 0.372 | 0.627 | 0.606 | 0.376 | 0.454 | 0.575 | 0.422
19 | 0.973 | 0.829 | 0.871 | GVRLYYRVMES [RB1_Y454] | 0.538 | 0.574 | 0.419 | 0.438 | 0.437 | 0.711 | 0.333 | 1.03 | 1.02 | 0.587 | 0.535 | 1.26 | 0.731
20 | 0.707 | 0.979 | 0.801 | HAVYIYDICHV [TWNK_Y508_V507I] | 9.37 | 8.7 | 6.7 | 7.62 | 5.31 | 1.65 | 5.31 | 2.46 | 0.989 | 8.01 | 1.57 | 1.77 | 4.12
21 | 0.812 | 1.21 | 1.01 | HCHEGYILHGA [SVEP1_Y2921] | 0.45 | 0.746 | 0.945 | 0.888 | 0.827 | 0.768 | 1.12 | 1.45 | 1.94 | 1.27 | 0.722 | 1.78 | 1.61
22 | 0.58 | 0.548 | 0.758 | HFGCIYHGTLL [MET_Y1093_V1092I] | 0.716 | 0.951 | 0.527 | 1 | 0.949 | 0.931 | 4.15 | 1.4 | 1.38 | 0.714 | 0.984 | 1.46 | 1.34
23 | 1.14 | 0.682 | 1.06 | HFVDEYDRTIE [KRAS_Y32_P34R] | 0.794 | 0.805 | 0.58 | 0.653 | 0.701 | 0.932 | 0.989 | 2.01 | 1.67 | 0.875 | 0.644 | 1.66 | 1.36
24 | 1 | 0.676 | 0.902 | HHTNEYEYDEL [TGM1_Y134_D132N] | 0.736 | 0.585 | 0.594 | 0.952 | 0.489 | 0.813 | 0.901 | 1.32 | 1.18 | 0.497 | 0.69 | 1.17 | 1.58
25 | 2.42 | 0.725 | 1.01 | HLMLQYDAVVN [SLC25A32_Y152_R147H] | 1.81 | 1.51 | 1.27 | 1.15 | 1.39 | 1.35 | 0.885 | 1.75 | 1.51 | 0.93 | 1.19 | 2.01 | 1.08
26 | 0.3 | 0.458 | 0.442 | HLQQSYLPRGT [TEX45_Y396] | 0.697 | 0.773 | 0.66 | 0.939 | 0.661 | 0.927 | 1.32 | 1.04 | 1.38 | 0.622 | 0.97 | 1.26 | 1.59
27 | 0.798 | 0.95 | 0.871 | HNELYYEEAEH [VANGL1_Y345] | 1.81 | 0.993 | 1.11 | 0.751 | 0.798 | 2.08 | 0.708 | 2.06 | 1.32 | 1.21 | 1.63 | 1.53 | 0.936
28 | 4.23 | 0.76 | 1.06 | HNQDGYSFPSR [LDLR_Y845_YF] | 0.871 | 0.939 | 1.15 | 0.996 | 0.748 | 1.08 | 1.02 | 1.94 | 1.55 | 0.762 | 0.906 | 1.45 | 1.31
29 | 2.53 | 0.882 | 0.771 | HTDDGYMPMSP [IRS1_Y612] | 0.824 | 0.756 | 0.883 | 0.839 | 0.834 | 0.757 | 0.503 | 1.94 | 1.37 | 0.787 | 1.45 | 1.59 | 1.04
